Source: patent publication US20060292157A1 (TRUSTEES OF COLUMBIA UNIVERSITY IN THE CITY OF NEW YORK, published 2006)

Biological target: T1, BiP/GRP78 (endogenous) (human (endogenous in human HeLa cells), UniProt P11021 19-654)
T1 construct: Immunoprecipitated from cell lysates with BiP/GRP78 antibodies; also called ER chaperone BiP/GRP78
Experiment: co-IP with BiP/GRP78 antibodies, blot with Flag antibodies; wild type against C/F mutants; HeLa and P69 cells
Description: These mutants were used to examine whether disruption of these regions altered interaction with BiP/GRP78 in HeLa (FIG. 11E) and P69 cells. BiP/GRP78 was immunoprecipitated using BiP/GRP78 antibodies and the membrane was probed with Flag antibodies (FIG. 11E). The C/F helix mutants of MDA-7/1IL-24 and M4 lost their ability to bind to BiP/GRP78 (FIG. 11E).
Cells were infected with Ad.vec, Ad.M4 or Ad.mda-7 or transfected with various plasmid (Flag tagged MDA7 or M4 and Myc tagged BiP) constructs in a 100-mm dish and after 48 h cells were rinsed with ice-cold phosphate buffered saline (PBS). Cells were lysed in 1 ml of immunoprecipitation buffer containing 25 mM Tris-Cl pH8.0, 137 mM NaCl, 2.5 mM KCl, 1% Triton X-100 and protease inhibitor mix. Cells were scrapped from the plates, transferred into microfuge tubes and rotated at 4° C. for 30 minutes. Tubes were centrifuged for 10 min at 13,000 rpm and 10 μl of supernatant were incubated with 50% Protein A agarose and rotated at 4° C. for 1 h to eliminate non-specific interactions. Samples were centrifuged and mixed with anti BiP/Grp78 or 9E10 myc monoclonal antibodies (1:200) dilution and rotated overnight at 4° C. Immune-complexes were precipitated with 25 μl of 50% protein A agarose for 2 h. […]

T1 sequence (P11021 19-654 limits assumed): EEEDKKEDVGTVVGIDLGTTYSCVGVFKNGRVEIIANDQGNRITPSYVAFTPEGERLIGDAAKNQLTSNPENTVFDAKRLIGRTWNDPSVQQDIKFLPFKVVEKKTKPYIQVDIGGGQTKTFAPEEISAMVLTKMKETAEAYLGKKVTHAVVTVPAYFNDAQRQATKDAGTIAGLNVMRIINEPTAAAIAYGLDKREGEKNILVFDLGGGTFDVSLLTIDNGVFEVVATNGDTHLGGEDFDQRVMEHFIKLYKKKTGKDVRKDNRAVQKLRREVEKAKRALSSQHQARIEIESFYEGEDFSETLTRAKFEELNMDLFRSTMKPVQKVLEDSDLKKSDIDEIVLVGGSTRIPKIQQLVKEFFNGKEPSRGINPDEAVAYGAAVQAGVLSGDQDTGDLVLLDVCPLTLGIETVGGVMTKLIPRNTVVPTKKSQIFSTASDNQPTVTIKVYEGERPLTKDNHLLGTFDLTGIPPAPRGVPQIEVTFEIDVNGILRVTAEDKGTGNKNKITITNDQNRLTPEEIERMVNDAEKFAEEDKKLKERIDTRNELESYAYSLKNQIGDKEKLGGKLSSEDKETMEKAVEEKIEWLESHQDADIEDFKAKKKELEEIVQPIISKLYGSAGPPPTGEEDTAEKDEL

B1: Flag-tagged M4 (amino acids 104-206 of MDA-7/IL-24, pCMV3xFlag) (other)
chain: ESCYLVHTLLEFYLKTVFKNYHNRTVEVRTLKSFSTLANNFVLIVSQLQPSQENEMFSIRDSAHRRFLLFRRAFKQLDVEAALTKALGEVDILLTWMQKFYKL
notes: Transiently expressed in HeLa cells; also called Flag M4; not shown: three Flag tags at the N-terminus from vector pCMV3xFlag (Sigma)
binding result: binds
